Results as given in US20220000982A1 (Novo Nordisk, published 2022).
*1 amine or outer side, *2 acyl side, *3 side chain or, on linkers, in order; H or OH if unused. Where no end group is shown, it is not given here. Side-chain parts run from the residue outwards. [ ]: non-standard residue; d: D form. The star is where a group is joined. C20 diacid = O=C(O)CCCCCCCCCCCCCCCCCCC(=O)*; C18 diacid = O=C(O)CCCCCCCCCCCCCCCCC(=O)*; γGlu = O=C(O)[C@H](CCC(=O)[*:2])N[*:1]; Trx = NC[C@H]1CC[C@H](C(=O)O)CC1; Nle = CCCC[C@H](N)C(=O)O; AEEA = NCCOCCOCC(=O)O; Aib = CC(C)(N)C(=O)O

Key:
Experiment in all cases: cell-based or functional assay
[1] = target: human glucagon receptor (human, UniProt P47871 26-477)
Chain of human glucagon receptor (P47871 26-477): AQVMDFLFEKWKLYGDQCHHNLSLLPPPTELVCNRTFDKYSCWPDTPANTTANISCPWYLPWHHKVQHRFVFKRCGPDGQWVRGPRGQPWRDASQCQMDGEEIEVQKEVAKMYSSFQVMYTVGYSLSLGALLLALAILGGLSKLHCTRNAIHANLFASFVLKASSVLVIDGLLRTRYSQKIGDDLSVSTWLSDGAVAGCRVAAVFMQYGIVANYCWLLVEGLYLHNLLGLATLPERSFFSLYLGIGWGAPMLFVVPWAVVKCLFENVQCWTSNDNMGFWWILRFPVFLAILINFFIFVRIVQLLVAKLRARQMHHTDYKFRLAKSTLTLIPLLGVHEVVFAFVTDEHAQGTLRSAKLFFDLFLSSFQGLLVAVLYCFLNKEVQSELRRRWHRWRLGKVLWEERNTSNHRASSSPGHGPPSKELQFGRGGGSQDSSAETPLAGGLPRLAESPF

[2] = target: human GLP-1 receptor (human, UniProt P43220 24-463)
[3] = target: T1, human GIP receptor (human, UniProt P48546 22-466)
T1 sequence (looked up): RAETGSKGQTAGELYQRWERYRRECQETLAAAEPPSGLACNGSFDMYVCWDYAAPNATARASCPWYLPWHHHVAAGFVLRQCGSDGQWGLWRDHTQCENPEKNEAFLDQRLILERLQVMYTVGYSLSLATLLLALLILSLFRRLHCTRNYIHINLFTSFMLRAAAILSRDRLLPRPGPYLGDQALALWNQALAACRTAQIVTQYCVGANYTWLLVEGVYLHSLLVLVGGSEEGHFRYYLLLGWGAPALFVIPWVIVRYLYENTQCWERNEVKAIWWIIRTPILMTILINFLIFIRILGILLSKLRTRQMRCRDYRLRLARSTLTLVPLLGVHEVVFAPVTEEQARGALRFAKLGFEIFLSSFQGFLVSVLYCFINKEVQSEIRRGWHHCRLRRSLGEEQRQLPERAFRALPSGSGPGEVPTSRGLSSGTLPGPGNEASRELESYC

Molecule	EC50, hGIP-R CRE Luc, 0.2% HSA [3] [nM]	further results
hGIP(1-42) (from UniProt P09681 52-93) (ligand)		EC50, hGcg-R CRE Luc, 0.2% HSA [1]: > 100 nM; EC50, hGLP-1-R CRE Luc, 0.2% HSA [2]: > 100 nM
Y[Aib]EGTFISDYSIA[Nle]DKIHQQDFVK([γGlu-γGlu-γGlu-C18 diacid])WLLAQKG	0.0499	EC50, hGcg-R CRE Luc, 1% HSA (*) [1]: > 100 nM; EC50, hGLP-1-R CRE Luc, 1% HSA (*) [2]: > 100 nM
Y[Aib]EGTFISDYSIA[Nle]DKIRQQDFVK([AEEA-AEEA-γGlu-Trx-C20 diacid])WLLAQKG	0.0447	
Y[Aib]EGTFISDYSIA[Nle]DKIRQQDFVK([γGlu-γGlu-γGlu-Trx-C20 diacid])WLLAQKG	0.0721	
Ac-[dY]AEGTFISDYSIA[Nle]DKIRQQDFVK([γGlu-γGlu-γGlu-C18 diacid])WLLAQKG	0.0489	
Ac-[dY]AEGTFISDYSIA[Nle]DKIRQQDFVK([γGlu-γGlu-γGlu-Trx-C20 diacid])WLLAQKG	0.18	
Y[Aib]EGTFISDYSIA[Nle]DKIRQEDFVK([γGlu-γGlu-γGlu-C18 diacid])WLLAQKG	0.0629	
Y[Aib]EGTFISDYSIA[Nle]DKIRQEDFVK([γGlu-γGlu-γGlu-Trx-C20 diacid])WLLAQKG	0.252	
Y[Aib]EGTFISDYSIA[Nle]DKIRQ[Aib]DFVK([γGlu-γGlu-γGlu-C18 diacid])WLLAQKG	0.0094	
Y[Aib]EGTFISDYSIA[Nle]DKIRQ[Aib]DFVK([γGlu-γGlu-γGlu-Trx-C20 diacid])WLLAQKG	0.0712	
Y[Aib]EGTFISDYSIA[Nle]DAIRQQDFVK([γGlu-γGlu-γGlu-C18 diacid])WLLAQKG	0.0725	
Y[Aib]EGTFISDYSIA[Nle]DAIRQQDFVK([γGlu-γGlu-γGlu-Trx-C20 diacid])WLLAQKG	0.266	
Ac-[dY]AEGTFISDYSIA[Nle]DKIRQQDFVK([AEEA-AEEA-γGlu-C18 diacid])WLLAQKG	0.0304	
Ac-[dY]AEGTFISDYSIA[Nle]DKIRQEDFVK([AEEA-AEEA-γGlu-C18 diacid])WLLAQKG	0.025	
Ac-[dY]AEGTFISDYSIA[Nle]DKIRQQDFVK([AEEA-AEEA-γGlu-γGlu-γGlu-C18 diacid])WLLAQKG	0.0431	
Ac-YAEGTFISDYSIA[Nle]DKIRQQDFVK([γGlu-γGlu-γGlu-C18 diacid])WLLAQKG	0.546	
Ac-[dY]AEGTFISDYSIADDKIRQEDFVK([AEEA-AEEA-γGlu-C18 diacid])WLLAQKG	0.0915	
Y[Aib]EGTFISDYSIA[Nle]DKIHQEDFVK([γGlu-γGlu-γGlu-γGlu-C18 diacid])WLLAQKG	0.158	
Y[Aib]EGTFISDYSIA[Nle]DKIHQEDFVK([γGlu-γGlu-γGlu-γGlu-Trx-C20 diacid])WLLAQKG	0.81	

Molecule	EC50, hGIP-R CRE Luc, 0.2% HSA [3] [nM]	further results
Ac-[dY]AEGTFISDYSIA[Nle]DKIHQEDFVK([γGlu-γGlu-γGlu-Trx-C20 diacid])WLLAQKG	0.547	
Ac-[dY]AEGTFISDYSIA[Nle]DKIHQ[Aib]DFVK([γGlu-γGlu-γGlu-Trx-C20 diacid])WLLAQKG	0.153	
YAEGTFISDYSIAMDKIHQQDFVNWLLAQKG (ligand) [hGIP(1-31)]	0.00224	
Y[Aib]EGTFISDYSIA[Nle]DKIRQQDFVK([γGlu-γGlu-γGlu-Trx-C20 diacid])WLLAQKP-NH2	0.0615	
Y[Aib]EGTFISDYSIA[Nle]DKIHQQDFVK([γGlu-γGlu-γGlu-Trx-C20 diacid])WLLAQKP-NH2	0.0675	
Ac-[dY]AEGTFISDYSIA[Nle]DKIRQQDFVK([γGlu-γGlu-γGlu-Trx-C20 diacid])WLLAQKP-NH2	0.0762	
Ac-[dY]AEGTFISDYSIA[Nle]DKIHQQDFVK([γGlu-γGlu-γGlu-Trx-C20 diacid])WLLAQKP-NH2	0.0712	
Ac-[dY][Aib]EGTFISDYSIA[Nle]DKIRQQDFVK([γGlu-γGlu-γGlu-γGlu-Trx-C20 diacid])WLLAQKP-NH2	0.0261	EC50, hGcg-R CRE Luc, 1% HSA (*) [1]: > 100 nM; EC50, hGLP-1-R CRE Luc, 1% HSA (*) [2]: > 10 nM
HAEGTFTSDVSSYLEGQAAKEFIAWLVKGRG (ligand) [hGLP-1(7-37)]	> 100	
Ac-[dY][Aib]EGTFISDYSIA[Nle]DKIHQQDFVK([γGlu-γGlu-γGlu-Trx-C20 diacid])WLLAQKP-NH2	0.0384	
Y[Aib]EGTFISDYSIA[Nle]DKIHQQDFVK([γGlu-γGlu-γGlu-C18 diacid])WLLAQKGKENDWKHNITQ	0.0213	EC50, hGcg-R CRE Luc, 1% HSA (*) [1]: > 100 nM; EC50, hGLP-1-R CRE Luc, 1% HSA (*) [2]: > 100 nM
Y[Aib]EGTFISDYSIA[Nle]DKIRQQDFVK([γGlu-γGlu-γGlu-C18 diacid])WLLAQKGKENDWKHNITQ	0.0201	EC50, hGcg-R CRE Luc, 1% HSA (*) [1]: > 100 nM; EC50, hGLP-1-R CRE Luc, 1% HSA (*) [2]: > 100 nM
Y[Aib]EGTFISDYSIA[Nle]DKIHQQDFVK([AEEA-AEEA-γGlu-C18 diacid])WLLAQKGKEEDWKHNITQ	0.00545	EC50, hGcg-R CRE Luc, 0.2% HSA [1]: > 100 nM; EC50, hGLP-1-R CRE Luc, 0.2% HSA [2]: > 100 nM
Y[Aib]EGTFISDYSIA[Nle]DKIHQQDFVK([AEEA-AEEA-γGlu-C18 diacid])WLLAQKGKEDDWKHNITQ	0.00597	EC50, hGcg-R CRE Luc, 0.2% HSA [1]: > 100 nM; EC50, hGLP-1-R CRE Luc, 0.2% HSA [2]: > 100 nM
Y[Aib]EGTFISDYSIA[Nle]DKIRQQDFVK([AEEA-AEEA-γGlu-C18 diacid])WLLAQKGKEEDWKHNITQ	0.00412	EC50, hGcg-R CRE Luc, 0.2% HSA [1]: > 100 nM; EC50, hGLP-1-R CRE Luc, 0.2% HSA [2]: > 100 nM
Y[Aib]EGTFISDYSIA[Nle]DKIHQQDFVK([γGlu-γGlu-γGlu-C18 diacid])WLLAQKGKEEDWKHNITQ	0.009	EC50, hGcg-R CRE Luc, 0.2% HSA [1]: > 100 nM; EC50, hGLP-1-R CRE Luc, 0.2% HSA [2]: > 100 nM
Y[Aib]EGTFISDYSIA[Nle]DKIRQQDFVK([AEEA-AEEA-γGlu-Trx-C20 diacid])WLLAQKGKEEDWKHNITQ	0.014	
Y[Aib]EGTFISDYSIA[Nle]DKIRQQDFVK([γGlu-γGlu-γGlu-Trx-C20 diacid])WLLAQKGKEEDWKHNITQ	0.022	
Ac-[dY][Aib]EGTFISDYSIA[Nle]DKIRQQDFVK([γGlu-γGlu-γGlu-C18 diacid])WLLAQKP-NH2	0.0212	EC50, hGLP-1-R CRE Luc, 0.2% HSA [2]: > 100 nM
